Measurements from the nanobody polyreactivity screen of Harvey et al. (2022).

Assay: yeast display, Sf9 membrane polyspecificity reagent, FACS + sequencing; frameworks hold sequencing errors
Summary of the method: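 Genes from sorted yeast were amplified by colony PCR, read by MiSeq 2 × 250 sequencing and filtered on CDR length. These cells carried a synthetic nanobody library in Saccharomyces cerevisiae BJ5465 and were sorted by FACS into low and high (top ~1%) gates on anti-HA and streptavidin fluorescence. Polyreactivity is labelled according to the gate of origin.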

Sequence | polyreactivity (PSR sort gate)
QVQLVESGGGLVQAGGSLRLSCAASGRTFYDYAMGWYRQAPGKERELVAAITYRDGTTYYADSVKGRFTISRDNAKNTVYLQMNSLKPEDTAVYDCGKTYYYSLGHGYNYWGQGTQVTVSS | low polyreactivity
QVQLVESGGGLVQAGGSLRLSCAASGRTFYFNAMGWYRQAPGKERELVAGISGDGSTNYADSVKGRFTISRDNAKNTFYLQMNSLKPEDTAVYYCAKTMGSQSYDFDYWGQGTQVTVSS | low polyreactivity
QVQLVESGGGLVQAGGSLRLSCAASGRTFYGNAMGWYRQAPGKERELVAAITSGGGSTRYADSVKGRFTISRDNANNTVYLQMNSLKPEHTAVYYCAAYRQGTAYDYWGQGTQVTVSS | high polyreactivity
QVQLVESGGGLVQAGGSLRLSCAASGRTFYGYAMGWYRQAPGKERELVAAISKSGGRTYYADSVKGRFTISRDNAKNTVYLQMNSLKPEDSAVYYCNAPVTGAGTYPPYDSWGQGTQVTVSS | high polyreactivity
QVQLVESGGGLVQAGGSLRLSCAASGRTFYGYAMGWYRQAPGKERELVAAITQRSGSTYYADSVKGRFTISRDNAKNTVYLQMNSLKPEDTAVYYYNADKSQRVRRGDYWGQGTQVTVSS | high polyreactivity
QVQLVESGGGLVQAGGSLRLSCAASGRTFYGYAMGWYRQAPGKERELVAGITSRVGSTYYADSVKGRFTISRDNAKNNVYLQMNSLKPEDTAVYYCAADRYAVRSYHYDYWGQGTQVTVSS | low polyreactivity
QVQLVESGGGLVQAGGSLRLSCAASGRTFYGYAMGWYRQAPGKERELVATITRRGGSTYYADSVKGRFTISRDNAKNTVYLQMNSLKPEDTAVYYCARQGDQYYRDGDDYWGQGTQVTVSS | high polyreactivity
QVQLVESGGGLVQAGGSLRLSCAASGRTFYGYAMGWYRQAPGKERELVAVITSGVRTNYADSVKGRFTISRDNAKNTVYLQMNSLKPEDTAVYYCAARGTLALRDHYGYWGQGTQVNVSS | high polyreactivity
QVQLVESGGGLVQAGGSLRLSCAASGRTFYGYGMGWYRQAPGKERELVAGISVRGGSTYYADSVKGRFTISRDNAKNTVYLQMNSLKPEDTAVYYCAALGWRPTYYYWGHGTQVTVSS | high polyreactivity
QVQLVESGGGLVQAGGSLRLSCAASGRTFYHYAMGWYRQAPGKERELFAAISWTGGSTSSTYYADSVKGRFTISRDNAKNTVYLQMNSLKPEDTAVYYCAADFWWGHTWQDDYWGQGTQVTVSS | low polyreactivity
QVQLVESGGGLVQAGGSLRLSCAASGRTFYHYAMGWYRQAPGKERELVAAITGSGGSTSYADSVKGRFTISRDNAKNTVYLQMNTLKPEDTAVYYCAAVQFPTPLLLYDSWGQGTQVTVSS | low polyreactivity
QVQLVESGGGLVQAGGSLRLSCAASGRTFYHYVMGWYRQEPGKERELVAAITSRGGSTYYADSVKGRFTISRDNAKNTVYLQMNSLKPEDTAVYYCAARLNYGNKYDYWGQGTQVTVSS | high polyreactivity
QVQLVESGGGLVQAGGSLRLSCAASGRTFYIYAMGGNRQATGKERELVAAITWRGGRTYYADSVKGRFTISRDNAKNTFYLQMNSLKPEDTAVYYCGARTGQGPMYKHWGQGTQVTLSS | high polyreactivity
QVQLVESGGGLVQAGGSLRLSCAASGRTFYIYAMGWYRPAPGKERELVAAITSGRSTSYADSVKGRFTISRDNAKNTVYLQMNSLKPEDTAVYYCAADQYTYWFGYDYWGQGTQVTVSS | low polyreactivity
QVQLVESGGGLVQAGGSLRLSCAASGRTFYIYAMGWYRQAPAKERELVAAITWSRGSSTYYADSVKGRFTISRDNAKNTVYLQMNSLKPEDTAVYYCAAETHYYWYEQYDYCGQGTQVTVSS | high polyreactivity
QVQLVESGGGLVQAGGSLRLSCAASGRTFYIYAMGWYRQAPGKERELVAAISWGSGSTYYADSVKGRFTISRDNAKNTVYLQMNSLKPEDTAVYYCAAEYAYPSEWTYDYWGQGTQVTVSS | low polyreactivity
QVQLVESGGGLVQAGGSLRLSCAASGRTFYIYAMGWYRQAPGTERELVAAITYGGGRTFYADSVKGRFTISRDKAKNTVYLQMNSLKPEDTAVYYCAADGRTLGRRYYYWGLGTQVTVSS | high polyreactivity
QVQLVESGGGLVQAGGSLRLSCAASGRTFYIYVMGWDRQAPGKERELVAGITVRGGITNYADSVKGGFTSSRDNAKNTVYLQMNSLKPEDTAVYYCAVDDLGSEYDYWGQGTQVTVSS | low polyreactivity
QVQLVESGGGLVQAGGSLRLSCAASGRTFYKNAMGWYRQAPGKEREFVASISVSGGRTYYADSVKGRFTISRDNAKNTVYLQMNSLKPEDTAVYYCNARASPLSQRDYWGQGTQVTVSS | low polyreactivity
QVQLVESGGGLVQAGGSLRLSCAASGRTFYKYAMGWYRQAPGKERELVAAISSRGGRTYYADSVKGRFTISRDNAKNTVYLQMNSLKPEDTAVYYCAAKGRPDGKYDYWGQGTQVTVSS | high polyreactivity
QVQLVESGGGLVQAGGSLRLSCAASGRTFYLNAMGWYRPAPGKERELVAAITRTGGRTYYADSVKGRFTISRDNAKNTVYLQMNSLKPEDTAVYYCAADYVNYSYEYWGQGTQVTVSS | high polyreactivity
QVQLVESGGGLVQAGGSLRLSCAASGRTFYLYTMGWYRQAPGKERELVATISDGGGGTYYADSVKGRFTISRDNAKNTVYLQMNSLKPEDPAVYYCAADPIDVRDVPIPHVDFDYWGQGTQVTVSS | low polyreactivity

Sequence | polyreactivity (PSR sort gate)
QVQLVESGGGLVQAGGSLRLSCAASGRTFYNAMGWYRQAPGKERELVAAITTGGGTKYADSVKGRFTISRDNAKNTVYLQMNSLKPEDTEVYYCATDAPDRTHSDSGFDAGYDYWGQGTQVTLSS | low polyreactivity
QVQLVESGGGLVQAGGSLRLSCAASGRTFYNTMGWYRQPPGKERELVAAISRGGITNYADSVKGRFTISRDNAKNTVYLQMNSLKPEDTAVYYCNAEPKLYYYYYKFDYWGQGTQVTVAS | high polyreactivity
QVQLVESGGGLVQAGGSLRLSCAASGRTFYNYAMVWYRQAPGKERELVAAIDWGSDSTYYADSVKGRFTISRDNAKNTVYLQMNSLKPEDTAVYYCAAYLVSVYSRTYDYWGQGTQVTVSS | low polyreactivity
QVQLVESGGGLVQAGGSLRLSCAASGRTFYPYAMGWYRQAPGKERELVAAISYRGGSTYYADSVKGRFTISRDNAKNTVYLQMNSLKPEDTAVYYCAKRGYASGSKWDYGYWGQGTQVTVSS | high polyreactivity
QVQLVESGGGLVQAGGSLRLSCAASGRTFYPYAMGWYRQAPGKERELVAAITQSGGSTYYADSVKGRFTISRDNAKNTVFLEMNSLKPEDTAVYYCAKRGYDNYPFYYWGQGTQVTVSS | high polyreactivity
QVQLVESGGGLVQAGGSLRLSCAASGRTFYPYAMGWYRQAPGKERELVATIRWTGGSTYYADSVKGRFTISRDNAKNTVYLQMNSLKPEDTAVYYCAAQNYFAFIRTYRYVHRPTYYYWGQGTQVTVSS | high polyreactivity
QVQLVESGGGLVQAGGSLRLSCAASGRTFYPYTMGWYRQAPGKEMELVAAITTSTGNTYYADSVKGRFTISRDNAKNNVYLQMNILKPEDTSVYYCAADTVWRLDYWGQGTKVTVSS | low polyreactivity
QVQLVESGGGLVQAGGSLRLSCAASGRTFYPYVMGWYRQAPGKEREFVAAISGTGGSTYYADSVKGRFTISRDNAKNTVYLQMNSLKPEDTAVYYCNRRIPYTSYSYGYWGQGTQVTVSS | high polyreactivity
QVQLVESGGGLVQAGGSLRLSCAASGRTFYQNVMGWYRPAPGKERELVAAISQRGGRTYYADSVKGRFTISRDNAKNTVYLQMNSLKPEDTAVYYCNADSTVWPYDYWGQGTQVTVSS | low polyreactivity
QVQLVESGGGLVQAGGSLRLSCAASGRTFYQYAMGWYRQAPGKERELVAAISKSGRRTYYADSVKGRFTISRDNAKNTVYLQINSLKPEDTAVYYCNAARYLTRWGRFYYWGEGTQVTVSS | high polyreactivity
QVQLVESGGGLVQAGGSLRLSCAASGRTFYQYGMGWYRQAPGKERELVAAISDSGGGTYYADSVKGRFTISRDNAKHTVYLQMNSLKPEDTAVYFCAATYVGPRRRYYYWGQGTQVTVSS | high polyreactivity
QVQLVESGGGLVQAGGSLRLSCAASGRTFYRNAMGWYRPAPGKERELVAAITSSGASTYYADSVKGRFTISRDNAKNTVYLQMKSLKPEDTAVYYCAAKYVFSVGNYRYDYWGQGTQVTGSS | low polyreactivity
QVQLVESGGGLVQAGGSLRLSCAASGRTFYRNAMGWYRQAPGKERELVAAISRGDSTYYADSVKGRFTISRDNAKNTVYLQMNSLKPEDTAVYYCAKRARRIGDVNMGSWGQGTQVTVSS | low polyreactivity
QVQLVESGGGLVQAGGSLRLSCAASGRTFYRNAMGWYRQATGKEREFVAVISVSGGSTYYADSVKGRFTISRDYAKNTVYLQMNSLKPEDTAVYYCGKRGPVRKTAYEYWGQGTQVTVSS | low polyreactivity
QVQLVESGGGLVQAGGSLRLSCAASGRTFYRNDMGWYRQAPGKERELVAAITSSGGTTYADSVKGRFTISRDNAKNTVYLQMNSLKPEDTAVYYCAAVYAYPNIYDYWGQGTQVNVSS | low polyreactivity
QVQLVESGGGLVQAGGSLRLSCAASGRTFYRYAMGWSRQAPGKERELVAGISGSGGRTYYADSVKGRFTISRDNAKNTVFLQMNSLKPEDTAVYYCNAYPHAYTGSTREGDYWGQGTQVTVSS | high polyreactivity
QVQLVESGGGLVQAGGSLRLSCAASGRTFYRYAMGWYRQAPGKEREFVAAISNGGSNTRYADSVKGRFTISRDNAKNTVYLQMNSLKPEDTAVYYCAARAYQHYNWGQGTQVTVSS | high polyreactivity
QVQLVESGGGLVQAGGSLRLSCAASGRTFYRYAMGWYRQAPGKERELVAAITSGDRTDYADSVKGRFTISRDNAKNTVYLQMNSLKPEDTAVYYCAADPYYVTDYDYWGEGTQVTVSS | low polyreactivity
QVQLVESGGGLVQAGGSLRLSCAASGRTFYRYAMGWYRQAPGKERELVAVISTDGSSTYYADSVKGRFTISRDNAKNTVYLLMNSLKPEDTAVYYCAARSLAWLFGRNYWGQGTQVTVSS | high polyreactivity
QVQLVESGGGLVQAGGSLRLSCAASGRTFYRYAMGWYRQPPGKESELVARIRATGGSTYYADSVKGRFTISRDYAKNTVYSQMNSLKPEDTAVYYCAAKIRWGSTWLGAGDYWGQGTQVTVSS | high polyreactivity
QVQLVESGGGLVQAGGSLRLSCAASGRTFYSFNAMVCYRQAPVKERELVAAIVGDGGITYYADSVKGRFTISRDNANNTVFLQMNSLKPEDTAVYYCAAETLHSSDGEDDYWGQGTQVSVSS | low polyreactivity
